Measurements as given in the supplement of paper PMC10567573.
± gives the standard deviation.

Experiment: protein stability index of a GFP-peptide fusion (GPS, HEK-293T) (PSI 1-6); higher = more stable
[1] = treatment: DMSO, c terminus: a fixed tail appended
[2] = treatment: MLN4924 1 uM, 8 h, c terminus: a fixed tail appended
[3] = treatment: DMSO, c terminus: native
[4] = treatment: MLN4924 1 uM, 8 h, c terminus: native
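Further: 24-mer peptide tiles fused after GFP, lentivirally expressed, FACS-sorted into six equal bins by GFP/DsRed ratio, decoded by Illumina sequencing, PSI is the read-weighted mean bin number.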

Sequence	protein stability index [1]	protein stability index [2]	protein stability index [3]	protein stability index [4]
EDGKRCVAVDYCASENHGCEHECV [MATN2]	4.92 ± 0.14	4.88 ± 0.7		
LVPFVGKVHIGYLPNKQVLGLSKL [GCH1]	2.78 ± 0.19	2.06 ± 0.37		
LDEQNKRPCRKFLLTGQCDFGSNC [ZMAT5]	3.34 ± 0.42	3.323 ± 0.006		
TPAMSSSSSSRVLLRQQLMRAQAQ [TFE3]	3.65 ± 0.26	3.66 ± 0.42		
GCALTTFSVLEGEKNNHRAKDLRA [SOAT1]	3.49 ± 0.52	3.83 ± 0.63		
SPRTRGSWSQPQPLKAPCLNGDTT [RASAL3]	3.92 ± 0.11	4.03 ± 0.23		
EARICRLLKHSNIVRLHDSISEEG [CAMK2B]	3.32 ± 0.41	3.46 ± 0.28		
DQSKLAGLLDLNNAILQLVKKYKS [ESRRG]	2.4 ± 0.26	2.31 ± 0.5		
EQVFNAVMAWVKYSIQERRPQLPQ [KLHL20]	2.75 ± 0.67	2.35 ± 0.68		
RRSFLIEHQRSHTGERPHQCIECG [ZSCAN9]	3.3 ± 0.39	3.8 ± 0.35		
AAGIGKLSTADGKAFADPEVLRRL [ANKRD17]	4.2 ± 0.15	4.19 ± 0.41		
TPSFSGDSSSSCSDHCITSSDMMD [VDR]	5.11 ± 0.28	5.11 ± 0.12		
PPELNYGATGECQNFLDPGYPLPK [ZNF449]	4.61 ± 0.2	4.67 ± 0.13		
SSPGPWGLEALAGGDLMPAPADPT [FCHO1]	4.78 ± 0.4	4.65 ± 0.23		
CLRILMGELSNHHDHHDEFCLMP [BEX3]			2.58 ± 0.69	2.27 ± 0.15
NYMNAAMVHINRALKLIIRLFLVE [RTN3]	2.24 ± 0.21	2.27 ± 0.26		
CSLDKRVILIFHCEFSSERGPRMC [CDC25B]	2.28 ± 0.63	2.54 ± 0.83		
ATIENNRVILEIDNARLAVDDFRL [KRT13]	2.15 ± 0.16	2.31 ± 0.35		
LRTLFTDLFEKKGYTFDYAYDWVG [CSNK1G1]	2.2 ± 0.21	2.12 ± 0.39		
VKVIRDFTTNKCKGFGFVTMTNYD [ELAVL3]	2.35 ± 0.47	2.15 ± 0.22		
QVKLYDIEQQQIRNALENIRKEMK [CRYL1]	3.14 ± 0.65	3.47 ± 0.29		
REAATKHSKASLPTGEGSISHEEQ [CHCHD6]	5.3 ± 0.24	5.34 ± 0.3		
ELDLRLRLAQPSSPEVLTPQLSPG [RTN2]	4.23 ± 0.24	4.22 ± 0.15		

Sequence	protein stability index [1]	protein stability index [2]	protein stability index [3]	protein stability index [4]
VEKVLRRWVDEEWPKRERGDPSRH [EDARADD]	2.97 ± 0.43	3.28 ± 0.67		
KYKCLLQQLYYTEADYEDDSKIAF [IQUB]	2.12 ± 0.6	2.02 ± 0.32		
ELQGFWMDIGQPKDFLTGMCLFLQ [GMPPB]	2.19 ± 0.25	2.01 ± 0.35		
YEDGTELTEDYFPSVPDNAELVLL [DFFB]	3.52 ± 0.36	3.7 ± 0.23		
STSAVPNLFVPLNTNPKEVQEMRN [ADD1]	4.53 ± 0.21	4.43 ± 0.28		
RPLQVNTADHRIYSYVVSRPQPRG [FAF2]	3.27 ± 0.43	3.49 ± 0.2		
EIAPQHRRGLLVSLNELMIVIGIL [SLC2A12]	2.07 ± 0.11	2.33 ± 0.16		
VNAKDNMWLTPLHRAVASRSEEAV [ANKRD44]	4.07 ± 0.29	4.02 ± 0.44		
KNERLWLLDDSKTWWRVRNAANRT [NCK2]	2.31 ± 0.23	2.62 ± 0.37		
ESQSTSLRGSYNSLHDGSDGLDGI [LURAP1L]	4.91 ± 0.11	4.68 ± 0.17		
YHYGVASCEACKAFFKRTIQGNIE [ESRRG]	2.43 ± 0.19	2.65 ± 0.58		
QMGVSAKRRPKAQPTTLVLPPQYV [MED27]	2.99 ± 0.19	3.1 ± 0.19		
QVKSRQNKTNKNSVSSCDQEHQSA [SMOC2]	5.1 ± 0.32	5.34 ± 0.16		
YRFHEHWRFVLQRLVFLAAFVVYL [TSN]	2.86 ± 0.37	2.8 ± 0.96		
KMKQLTEETEVLAHEIERLQMEMK [TRIM35]	4.06 ± 0.55	3.63 ± 0.28		
TEPSGRVAKKTPTKRSTLIISGVS [C2CD2L]	3.76 ± 0.27	3.92 ± 0.34		
DTDRDGYISHRELGDCMRTLGYMP [CABP4]	3.41 ± 0.22	3.47 ± 0.26		
EFLELSPQKLKEVISLEKLNVGNE [GAN]	3.44 ± 0.61	3.09 ± 0.51		
AVGYQPEYSKFCRMSYQDPAQLSC [NFE2L1]	2.63 ± 0.41	2.2 ± 0.44		
LSLLVMVISPVIQLQPTFTPMRVA [NSDHL]	3.08 ± 0.32	3.23 ± 0.087		
PHKTFRKLRLFDTPHTPKSLLSKA [WEE1]	2.82 ± 0.35	2.98 ± 0.41		
VQVENPERFSSAPCLLGSRVFSQG [TRIM35]	3.09 ± 0.24	3.2 ± 0.22		
PRLWTTCRDGEVLLRLSKHGPGHE [ACSBG2]	2.4 ± 0.15	2.21 ± 0.17		

Sequence	protein stability index [1]	protein stability index [2]	protein stability index [3]	protein stability index [4]
TPAITVSNSCPAELPNIKREISET [TFE3]	5.16 ± 0.35	4.86 ± 0.22		
PKGGQVQIVTKKIDLSHVTSKCGS [MAP2]	3.92 ± 0.18	3.91 ± 0.37		
RRSIRYGREVELKPYIAAHFDVLP [PTPRD]	2.5 ± 0.41	2.46 ± 0.43		
DVLNDAIFDEDHDEMVIVKDIDMF [GCH1]	3.5 ± 0.15	3.62 ± 0.2		
DKKKELQELNELFKPVVAAQKISK [ZC3H15]	4.39 ± 0.32	4.43 ± 0.17		
QPVVDTFDIRILMAKSVKYTVNFL [CARM1]	2.79 ± 0.7	2.62 ± 0.56		
PRKTAAPVNALVSHLLVVEPEKLY [ESRRA]	2.83 ± 0.22	2.5 ± 0.18		
DPLLLILSFLDYRDLINCCYVSRR [FBXO3]	2.91 ± 0.74	3.05 ± 0.82		
EHRRTARRTPPGQQRPHPRSHSRE [ELOA2]	5.47 ± 0.14	5.32 ± 0.39		
RAIMAHMTVEEIYKDRQKFSEQVF [FLOT1]	2.52 ± 0.32	2.74 ± 0.3		
VLRGLARPEHPPPAPTGQDDPQSQ [TMEM175]	5.39 ± 0.45	5.54 ± 0.22		
FSDIPSPYLRGTIKMMQAVRQAFQ [GFOD1]	2.38 ± 0.2	2.17 ± 0.17		
PSTICFGQGAARGFKSNKKKTKQC [ZNF511]	4.14 ± 0.83	3.84 ± 0.068		
LSRKVAELVHFLLLKYRAREPVTK [MAGEA3]	2.97 ± 0.42	2.44 ± 0.43		
EARKYASNLLKAGFIRHTVNKITF [DVL3]	2.31 ± 0.48	2.16 ± 0.18		
FLTFDKQVLRFYAIWDDTDSMYGE [EFHC1]	2.49 ± 0.41	2.46 ± 0.55		
GDKYEHHSYMGMRGFCAFLGSWLV [POMT2]	2.23 ± 0.57	1.73 ± 0.29		
TWEHSNLEVNKPKNRYANVIAYDH [PTPRD]	2.98 ± 0.27	3.02 ± 0.32		
EPTETLLSEKEINAREESLVEELS [BCL2L13]	5.46 ± 0.12	5.55 ± 0.26		
YISRKYFATRPGAIETAMEDLKGH [TPRG1]	2.73 ± 0.41	2.81 ± 0.43		
KGTFKDYVRDRADLNKDKPVIPAA [ETS1]	4.35 ± 0.13	4.43 ± 0.16		
ERLLCPSLLAGTADGSLRMDDPKG [M1AP]	4.74 ± 0.3	4.71 ± 0.3		
IHAYNLGTNAWEEIATKPHEKIGF [KLHDC10]	2.48 ± 0.15	2.57 ± 0.54		

Sequence	protein stability index [1]	protein stability index [2]	protein stability index [3]	protein stability index [4]
SALTDRTSRAPSTYTYTSRPRALP [RSPH3]	4.01 ± 0.26	3.7 ± 0.29		
LEEEFDSDSGLSLDSSHSPSSLSS [NFE2L1]	5.251 ± 0.052	5.22 ± 0.12		
LCKDCQVIDGRNVTVTDVDIVFSK [TPPP]	2.89 ± 0.28	3.3 ± 0.47		
EEVVYDLSIRGFNKETAAACVEK [TSN]			4.39 ± 0.14	4.38 ± 0.27
EWIKLDYHRRHNPKTNEDFEFLYN [IQUB]	2.12 ± 0.19	2.24 ± 0.18		
ADQTVLTEDEKKELENLAAMDLEL [CHGB]	5.6 ± 0.28	5.61 ± 0.16		
QRVVYLEGCGPPLRRWLRANLAAS [TSPAN10]	2.26 ± 0.33	2.11 ± 0.24		
HSEKMAQYLEEERHMREENLRLQR [CCDC6]	4.91 ± 0.07	4.56 ± 0.25		
SVDPIAAFCSSDEELEDSKALLYL [RBBP5]	3.94 ± 0.26	4.08 ± 0.36		
TMLATRNFSAAKSLLKKPDGVKES [CAMK2D]	4.36 ± 0.067	4.33 ± 0.51		
SPEVLRKDPYGKPVDLWACGVILY [CAMK2A]	2.67 ± 0.56	2.49 ± 0.49		
ARTQMILLRRSVEGASSDNGCEVK [PHTF1]	3.68 ± 0.24	3.98 ± 0.2		
QLSRLNITYPMLFKLTNKNSDRMT [UFD1]	2.33 ± 0.14	2.58 ± 0.42		
SKLLLSGTADGADLRTVDPETQAR [ANKRD17]	5.08 ± 0.35	5.13 ± 0.26		
PLRADHMVKEPVEDTDPSTLSFNM [EDARADD]	5.1 ± 0.083	4.86 ± 0.46		
RTEIISRSWFPSAPGSASSSKVSG [YJU2B]	3.94 ± 0.13	3.97 ± 0.15		
SIESIKWMIEEKATITSRGSSLSG [LURAP1L]	3.1 ± 0.2	3.39 ± 0.41		
CVNGDVDKPSEPASEEGSESEGSE [SMG5]	5.58 ± 0.23	5.51 ± 0.14		
ESYFTTRTYGEPESAGPSRAVRQS [EMD]	4.62 ± 0.26	4.57 ± 0.18		
TLERYMCSRFFIDFPDILEQQRKL [TENT5C]	2.35 ± 0.16	2.37 ± 0.037		
